Assay results taken from patent US20190381183A1 (TEXAS A AND M UNIVERSITY SYSTEM, published 2019).

How the values were obtained:
[1] = target: T1, recombinant human HER2 (extracellular domain)-Fc fusion protein (human, UniProt P04626 23-652); assay: SPR (BIAcore T200), antibody injected over immobilized HER2-ECD-Fc, pH 5.8, apparent KD (FIG. 4B); pH 5.8
T1 construct: extracellular domain; Bought reagent; also called HER2-ECD-Fc; HER-extracellular domain (ECD)-Fc fusion; not shown: immunoglobulin Fc fragment of the bought fusion protein

[2] = target: T1, recombinant human HER2 (extracellular …); assay: SPR, antibody injected over immobilized HER2-ECD-Fc, apparent equilibrium dissociation constant, pH 5.8
[3] = target: T1, recombinant human HER2 (extracellular …); assay: SPR, antibody injected over immobilized HER2-ECD-Fc, apparent equilibrium dissociation constant, pH 6.5
[4] = target: T1, recombinant human HER2 (extracellular …); assay: SPR, antibody injected over immobilized HER2-ECD-Fc, apparent equilibrium dissociation constant, pH 7.0
[5] = target: T1, recombinant human HER2 (extracellular …); assay: SPR, antibody injected over immobilized HER2-ECD-Fc, apparent equilibrium dissociation constant, pH 7.4

Kd [1]: > 1500 nM
Kd [2]: 1630 nM
Kd [3]: 67.9 nM
Kd [4]: 22.1 nM
Kd [5]: 6.3 nM
B1: YS mutant of pertuzumab (Tyr55 to histidine in the light chain variable domain and Ser103 to histidine in the heavy chain variable domain) (antibody, human IgG1, V domains shown)
VH: QVQLQESGGGLVQPGGSLRLSCAASGFTFTDYTMDWVRQAPGKGLEWVADVNPNSGGSIYNQRFKGRFTLSVDRSKNTLYLQMNSLRAEDTAVYYCARNLGPHFYFDYWGQGTLVTVSS
VL: DIELTQSPSSLSASVGDRVTITCKASQDVSIGVAWYQQKPGKAPKLLIYSASYRHTGVPSRFSGSGSGTDFTLTISSLQPEDFATYYCQQYYIYPYTFGQGTKLEIKR
notes: Tested without conjugated drug in the SPR assay; also called YS variant of pertuzumab
